Reference: patent publication US6448059

What was measured:
[1] = target: T1, cysteine-tRNA synthetase (CysRS) (Haemophilus influenzae) (UniProt P43816); conditions: kcat/Km of aminoacylation, 37 C; relative 1.4
T1 sequence: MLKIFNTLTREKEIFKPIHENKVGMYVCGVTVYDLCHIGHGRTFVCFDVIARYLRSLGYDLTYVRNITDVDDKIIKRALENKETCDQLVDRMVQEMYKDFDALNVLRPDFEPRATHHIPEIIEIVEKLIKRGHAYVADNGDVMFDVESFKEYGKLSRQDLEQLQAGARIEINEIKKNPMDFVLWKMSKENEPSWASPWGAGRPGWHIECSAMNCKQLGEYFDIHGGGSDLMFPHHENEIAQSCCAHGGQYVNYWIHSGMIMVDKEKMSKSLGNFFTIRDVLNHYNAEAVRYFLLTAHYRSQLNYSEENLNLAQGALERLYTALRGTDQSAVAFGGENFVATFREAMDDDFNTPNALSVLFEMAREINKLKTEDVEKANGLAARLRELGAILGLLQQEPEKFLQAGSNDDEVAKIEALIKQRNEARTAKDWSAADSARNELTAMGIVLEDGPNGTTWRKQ

[2] = target: T2, cysteine-tRNA synthetase (CysRS) (Escherichia coli) (UniProt P21888); conditions: kcat/Km of aminoacylation, 37 C; relative 1.6
T2 sequence: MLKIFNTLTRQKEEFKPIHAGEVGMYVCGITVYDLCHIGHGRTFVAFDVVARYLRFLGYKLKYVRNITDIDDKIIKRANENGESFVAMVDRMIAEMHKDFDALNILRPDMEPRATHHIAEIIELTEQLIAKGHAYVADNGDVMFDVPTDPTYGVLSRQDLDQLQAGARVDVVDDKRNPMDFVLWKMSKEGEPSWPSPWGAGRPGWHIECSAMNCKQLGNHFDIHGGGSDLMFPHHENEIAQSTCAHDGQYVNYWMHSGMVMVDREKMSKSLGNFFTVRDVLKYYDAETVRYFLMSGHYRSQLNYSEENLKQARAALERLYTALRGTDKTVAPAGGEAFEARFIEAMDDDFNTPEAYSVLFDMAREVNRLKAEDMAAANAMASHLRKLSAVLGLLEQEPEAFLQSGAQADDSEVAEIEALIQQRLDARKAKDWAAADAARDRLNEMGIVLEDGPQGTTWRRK

Substance: B. subtilis tRNACys
- activity [1]: 250000 M⁻¹ s⁻¹
- activity [2]: 340000 M⁻¹ s⁻¹
